Reference: patent US20240368279A1 (SHANGHAI SINOBAY BIOTECHNOLOGY, published 2024)

Target: human CD47 protein (antigen of the SPR affinity determination) (human, UniProt Q08722 19-139, limits assumed)
Experiment: affinity for a human CD47 protein (method not given; SPR in Example 3)

B1: Hu004-65 antibody (full-length human IgG1, kappa) (antibody, V domains shown)
VH: EVQLVESGGGLVQPGGSLRLSCAASGFTFSGYGMSWVRQAPGKGLEWVATITSGGTYTYYPDSVKGRFTISRDNAKNSLYLQMNSLRAEDTAVYYCARSLAGNAMDYWGQGTLVTVSS
VL: DIQMTQSPSSLSASVGDRVTITCRASQSITKSLNWYQQKPGKAPRLLIRVASTLQSGVPSRFSGSGSGTDFTLTISSLQPEDFATYYCQHSYSFGQGTKLEIT
notes: also called candidate antibody Hu004-65; monoclonal antibody Hu004-65
- Kd: 146 nM

B2: Hu004-101 antibody (full-length human IgG1, kappa) (antibody, V domains shown)
VH: B1 VH
VL: DIQMTQSPSTLSASVGDRVTITCRASQSISNWLAWYQQKPGEAPKLLIYKASNLESGVPSRFSGSGSGTEFTLTISSLQPDDFATYYCQQFGTFGQGTKVEIK
- Kd: 320 nM
